Test results as given in the supplement of paper PMC10065799, “High-throughput profiling of sequence recognition by tyrosine kinases and SH2 domains using bacterial peptide display” (eLife, 2023).

Key:
SHP2-C SH2 = assay: SH2 binding enrichment of the phosphorylated peptide, bacterial display (enrichment ratio); higher = better substrate or ligand; peptides without Tyr show the background
Grb2 SH2 = Grb2 SH2 (UniProt P62993); assay: as above
c-Src SH2 = assay: as above
Fer (mouse) = assay: phosphorylation enrichment, bacterial display (enrichment ratio); higher = better substrate or ligand; peptides without Tyr show the background
Jak2 = Jak2 (UniProt O60674); assay: as above
Sequence of Jak2 (O60674 whole entry, looked up): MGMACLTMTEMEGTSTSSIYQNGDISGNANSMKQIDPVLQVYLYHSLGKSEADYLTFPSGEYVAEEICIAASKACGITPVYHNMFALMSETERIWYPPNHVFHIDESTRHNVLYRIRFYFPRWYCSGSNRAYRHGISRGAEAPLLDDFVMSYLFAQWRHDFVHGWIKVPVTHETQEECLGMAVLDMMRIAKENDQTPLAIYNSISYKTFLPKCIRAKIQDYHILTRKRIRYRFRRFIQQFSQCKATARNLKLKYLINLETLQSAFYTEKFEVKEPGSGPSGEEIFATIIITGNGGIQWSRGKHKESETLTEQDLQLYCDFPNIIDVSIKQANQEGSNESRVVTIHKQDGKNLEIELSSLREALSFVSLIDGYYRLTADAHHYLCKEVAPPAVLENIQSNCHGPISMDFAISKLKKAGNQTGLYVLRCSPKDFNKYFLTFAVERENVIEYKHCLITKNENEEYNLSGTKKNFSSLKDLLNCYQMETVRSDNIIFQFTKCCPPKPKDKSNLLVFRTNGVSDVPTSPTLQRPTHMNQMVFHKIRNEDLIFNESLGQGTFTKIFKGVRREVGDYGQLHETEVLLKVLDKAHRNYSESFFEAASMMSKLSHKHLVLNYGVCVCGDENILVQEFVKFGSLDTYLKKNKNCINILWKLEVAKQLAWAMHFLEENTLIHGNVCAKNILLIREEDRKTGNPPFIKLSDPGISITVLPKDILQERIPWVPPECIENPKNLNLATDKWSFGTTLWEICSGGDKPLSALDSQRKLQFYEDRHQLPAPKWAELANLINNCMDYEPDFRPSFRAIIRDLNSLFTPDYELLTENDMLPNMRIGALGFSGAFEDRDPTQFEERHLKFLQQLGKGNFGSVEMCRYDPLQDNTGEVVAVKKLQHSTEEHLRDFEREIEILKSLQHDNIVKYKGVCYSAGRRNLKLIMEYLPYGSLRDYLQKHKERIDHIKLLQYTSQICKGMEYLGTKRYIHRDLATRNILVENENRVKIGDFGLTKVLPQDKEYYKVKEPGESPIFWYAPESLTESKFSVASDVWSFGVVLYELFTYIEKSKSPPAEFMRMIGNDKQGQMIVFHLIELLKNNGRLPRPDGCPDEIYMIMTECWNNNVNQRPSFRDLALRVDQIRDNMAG

MERTK = MERTK (UniProt Q12866); assay: as above
Sequence of MERTK (Q12866 whole entry, looked up): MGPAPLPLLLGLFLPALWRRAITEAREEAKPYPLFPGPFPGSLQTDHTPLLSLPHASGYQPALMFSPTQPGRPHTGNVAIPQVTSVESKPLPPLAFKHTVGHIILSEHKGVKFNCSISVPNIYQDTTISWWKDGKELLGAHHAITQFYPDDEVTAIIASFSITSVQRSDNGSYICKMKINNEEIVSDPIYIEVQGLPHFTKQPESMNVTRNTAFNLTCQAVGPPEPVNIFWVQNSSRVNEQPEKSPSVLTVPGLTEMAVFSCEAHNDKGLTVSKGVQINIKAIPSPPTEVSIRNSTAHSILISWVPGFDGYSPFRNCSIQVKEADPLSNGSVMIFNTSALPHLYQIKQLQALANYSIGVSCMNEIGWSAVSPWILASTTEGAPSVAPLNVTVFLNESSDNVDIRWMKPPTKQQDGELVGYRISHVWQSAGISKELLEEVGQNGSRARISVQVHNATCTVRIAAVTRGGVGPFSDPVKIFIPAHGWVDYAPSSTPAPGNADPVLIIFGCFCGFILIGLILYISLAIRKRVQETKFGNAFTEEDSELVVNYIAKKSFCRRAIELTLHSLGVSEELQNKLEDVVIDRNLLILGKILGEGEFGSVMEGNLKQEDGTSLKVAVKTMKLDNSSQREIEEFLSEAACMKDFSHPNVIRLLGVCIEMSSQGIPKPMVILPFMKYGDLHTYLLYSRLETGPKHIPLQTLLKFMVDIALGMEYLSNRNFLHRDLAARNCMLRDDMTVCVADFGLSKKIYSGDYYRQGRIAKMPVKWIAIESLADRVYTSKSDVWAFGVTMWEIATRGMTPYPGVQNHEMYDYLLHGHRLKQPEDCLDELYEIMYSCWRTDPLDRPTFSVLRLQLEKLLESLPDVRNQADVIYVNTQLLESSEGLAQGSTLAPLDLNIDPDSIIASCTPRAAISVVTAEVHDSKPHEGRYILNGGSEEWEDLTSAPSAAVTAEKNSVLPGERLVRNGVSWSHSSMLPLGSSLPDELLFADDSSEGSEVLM

FGFR3 = FGFR3 (UniProt P22607); assay: as above
Sequence of FGFR3 (P22607 whole entry, looked up): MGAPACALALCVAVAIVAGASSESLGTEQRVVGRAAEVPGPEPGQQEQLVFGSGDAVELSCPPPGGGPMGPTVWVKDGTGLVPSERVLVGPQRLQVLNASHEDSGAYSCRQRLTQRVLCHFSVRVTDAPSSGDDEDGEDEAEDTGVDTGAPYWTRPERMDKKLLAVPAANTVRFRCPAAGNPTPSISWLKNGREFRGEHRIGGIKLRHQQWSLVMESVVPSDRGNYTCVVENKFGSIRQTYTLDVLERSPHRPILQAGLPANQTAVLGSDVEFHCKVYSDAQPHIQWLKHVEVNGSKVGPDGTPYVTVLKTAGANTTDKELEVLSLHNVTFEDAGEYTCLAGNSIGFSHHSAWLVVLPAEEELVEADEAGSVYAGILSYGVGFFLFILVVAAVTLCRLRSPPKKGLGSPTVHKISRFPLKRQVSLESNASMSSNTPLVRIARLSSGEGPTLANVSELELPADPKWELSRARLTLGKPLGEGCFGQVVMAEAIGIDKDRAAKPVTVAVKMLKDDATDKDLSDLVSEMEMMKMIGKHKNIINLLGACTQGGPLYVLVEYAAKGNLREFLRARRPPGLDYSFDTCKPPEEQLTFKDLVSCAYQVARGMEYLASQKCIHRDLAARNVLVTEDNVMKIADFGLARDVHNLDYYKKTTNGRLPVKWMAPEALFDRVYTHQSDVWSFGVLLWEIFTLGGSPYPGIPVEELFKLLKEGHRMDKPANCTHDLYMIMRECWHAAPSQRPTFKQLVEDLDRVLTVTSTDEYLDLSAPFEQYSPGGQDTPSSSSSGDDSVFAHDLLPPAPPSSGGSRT

Hck = Hck (UniProt P08631); assay: as above
Fes = Fes (UniProt P07332); assay: as above
Sequence of Fes (P07332 whole entry, looked up): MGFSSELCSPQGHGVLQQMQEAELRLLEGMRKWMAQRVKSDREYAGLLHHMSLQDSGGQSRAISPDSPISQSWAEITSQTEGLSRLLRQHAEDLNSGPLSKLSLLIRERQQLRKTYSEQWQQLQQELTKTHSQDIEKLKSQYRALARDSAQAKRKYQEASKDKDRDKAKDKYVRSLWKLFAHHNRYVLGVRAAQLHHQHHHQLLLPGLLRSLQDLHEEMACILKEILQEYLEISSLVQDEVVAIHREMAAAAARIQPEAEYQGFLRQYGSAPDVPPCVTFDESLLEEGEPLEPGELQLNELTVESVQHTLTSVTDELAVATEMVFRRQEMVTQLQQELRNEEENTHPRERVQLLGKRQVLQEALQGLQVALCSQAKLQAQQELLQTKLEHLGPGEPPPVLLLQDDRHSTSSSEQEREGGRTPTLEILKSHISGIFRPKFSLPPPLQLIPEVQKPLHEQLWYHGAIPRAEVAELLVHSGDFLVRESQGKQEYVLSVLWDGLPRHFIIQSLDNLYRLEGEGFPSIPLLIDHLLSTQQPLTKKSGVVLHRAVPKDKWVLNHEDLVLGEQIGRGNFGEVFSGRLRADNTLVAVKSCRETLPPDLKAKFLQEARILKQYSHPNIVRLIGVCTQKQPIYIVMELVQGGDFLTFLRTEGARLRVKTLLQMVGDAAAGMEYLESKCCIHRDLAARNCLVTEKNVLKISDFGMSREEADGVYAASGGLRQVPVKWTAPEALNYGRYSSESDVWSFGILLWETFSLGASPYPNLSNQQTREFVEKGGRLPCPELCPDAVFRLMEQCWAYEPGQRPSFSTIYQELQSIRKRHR

c-Abl (mouse) = assay: as above
c-Src = assay: as above
AncSZ = assay: as above
FGFR1 = FGFR1 (UniProt P11362); assay: as above
EPHB1 = EPHB1 (UniProt P54762); assay: as above
EPHB2 = EPHB2 (UniProt P29323); assay: as above
Sequence of EPHB2 (P29323 whole entry, looked up): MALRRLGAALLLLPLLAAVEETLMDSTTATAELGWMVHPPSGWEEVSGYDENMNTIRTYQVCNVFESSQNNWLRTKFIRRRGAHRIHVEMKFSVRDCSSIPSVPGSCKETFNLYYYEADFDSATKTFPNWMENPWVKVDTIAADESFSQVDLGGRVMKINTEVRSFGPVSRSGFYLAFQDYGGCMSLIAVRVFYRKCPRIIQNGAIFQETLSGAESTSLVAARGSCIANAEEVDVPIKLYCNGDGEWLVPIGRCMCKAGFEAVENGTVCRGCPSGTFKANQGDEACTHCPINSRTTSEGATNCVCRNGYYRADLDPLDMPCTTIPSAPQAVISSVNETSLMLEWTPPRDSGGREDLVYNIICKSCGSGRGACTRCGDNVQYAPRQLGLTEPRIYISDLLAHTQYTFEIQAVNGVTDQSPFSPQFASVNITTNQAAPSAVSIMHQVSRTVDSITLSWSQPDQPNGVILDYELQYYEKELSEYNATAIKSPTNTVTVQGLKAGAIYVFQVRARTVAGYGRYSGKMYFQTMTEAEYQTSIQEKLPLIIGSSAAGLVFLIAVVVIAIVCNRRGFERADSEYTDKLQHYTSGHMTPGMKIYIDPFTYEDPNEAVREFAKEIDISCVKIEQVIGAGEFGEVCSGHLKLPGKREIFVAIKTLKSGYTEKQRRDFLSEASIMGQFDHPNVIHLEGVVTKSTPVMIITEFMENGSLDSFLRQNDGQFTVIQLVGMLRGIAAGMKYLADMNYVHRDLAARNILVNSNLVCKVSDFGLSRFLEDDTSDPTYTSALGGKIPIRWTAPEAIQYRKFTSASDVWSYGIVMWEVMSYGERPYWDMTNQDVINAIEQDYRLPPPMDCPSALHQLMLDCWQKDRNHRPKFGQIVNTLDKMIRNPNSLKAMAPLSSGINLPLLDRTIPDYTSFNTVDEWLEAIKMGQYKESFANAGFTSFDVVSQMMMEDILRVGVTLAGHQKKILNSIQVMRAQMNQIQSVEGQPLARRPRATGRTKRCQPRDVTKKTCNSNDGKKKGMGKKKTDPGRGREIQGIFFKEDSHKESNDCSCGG

Fyn = Fyn (UniProt P06241); assay: as above
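Throughout, for SH2 binding enrichment of the phosphorylated peptide, bacterial display: peptide library displayed on the E. coli surface as eCPX fusions, selected cells deep-sequenced, score is each peptide's frequency after selection divided by its frequency in the input.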
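Throughout, for phosphorylation enrichment, bacterial display: 11-residue human phosphosite peptides and single-mutation variants displayed on the E. coli surface, counted by deep sequencing, each peptide's frequency after selection divided by its frequency in the unselected input library; frequency after pTyr selection over input frequency; kinase dosed for 20-30% of maximal phosphorylation in three min.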

Sequence of Grb2 SH2 (P62993 whole entry, looked up): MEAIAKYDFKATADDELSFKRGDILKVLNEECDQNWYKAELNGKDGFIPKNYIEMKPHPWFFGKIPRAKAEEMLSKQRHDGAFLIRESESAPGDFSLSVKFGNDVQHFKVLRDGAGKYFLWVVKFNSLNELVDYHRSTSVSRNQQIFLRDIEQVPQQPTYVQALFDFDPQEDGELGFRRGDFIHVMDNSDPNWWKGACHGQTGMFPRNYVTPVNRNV

| Sequence | SH2 binding enrichment (SHP2-C SH2) | SH2 binding enrichment (Grb2 SH2) | SH2 binding enrichment (c-Src SH2) | phosphorylation enrichment (Fer (mouse)) | phosphorylation enrichment (Jak2) | phosphorylation enrichment (MERTK) | phosphorylation enrichment (FGFR3) | phosphorylation enrichment (Hck) | phosphorylation enrichment (Fes) | phosphorylation enrichment (c-Abl (mouse)) | phosphorylation enrichment (c-Src) | phosphorylation enrichment (AncSZ) | phosphorylation enrichment (FGFR1) | phosphorylation enrichment (EPHB1) | phosphorylation enrichment (EPHB2) | phosphorylation enrichment (Fyn) |
| --- | --- | --- | --- | --- | --- | --- | --- | --- | --- | --- | --- | --- | --- | --- | --- | --- |
| HKLSYCEYDFE [BTK_Y40_Y40C] | 0.68 | 1.3 | 0.914 | 0.687 | 1.29 | 0.535 | 1.34 | 0.746 | 1.76 | 0.871 | 2.46 | 1.78 | 0.762 | 0.857 | 1.14 | 1.68 |
| RNGDRYFKEIV [DCX_Y64_G67E] | 0.588 | 0.749 | 0.393 | 0.472 | 0.469 | 0.514 | 1.51 | 0.559 | 0.705 | 0.548 | 0.559 | 0.546 | 0.703 | 0.55 | 0.626 | 0.572 |
| PFSNPYENSLI [EPOR_Y489_YF] | 0.501 | 15.5 | 4.88 | 2.23 | 3.41 | 0.675 | 1.02 | 0.848 | 1.48 | 1.18 | 1.01 | 1.92 | 0.964 | 0.92 | 0.929 | 1.04 |
| DSGRDYVSQFE [APOA1_Y53] | 0.631 | 0.875 | 0.487 | 0.478 | 0.665 | 0.409 | 0.673 | 0.529 | 0.922 | 0.601 | 0.403 | 0.914 | 0.462 | 0.685 | 0.492 | 0.489 |
| AESPEYVHMFT [FAM111A_Y511_YF] | 0.564 | 0.878 | 0.528 | 0.542 | 1.11 | 0.407 | 1.58 | 0.629 | 1.12 | 0.703 | 0.443 | 1.32 | 1.69 | 0.579 | 0.598 | 0.502 |
| HLELNYKEDEY [MME_Y502_Y497H] | 0.535 | 0.692 | 0.483 | 0.344 | 1.06 | 0.396 | 0.611 | 0.382 | 0.994 | 0.62 | 0.418 | 1.32 | 0.487 | 0.562 | 0.535 | 0.514 |
| MRALIYNSSTV [PLEKHA7_Y243_A248V] | 0.605 | 0.674 | 0.463 | 0.51 | 0.726 | 0.405 | 0.57 | 0.754 | 0.824 | 0.872 | 0.77 | 0.669 | 0.447 | 0.447 | 0.657 | 0.714 |
| KFLENYLNCLL [PLD2_Y169_R172C_YF] | 1.61 | 1.45 | 1.25 | 0.532 | 1.23 | 0.461 | 0.859 | 0.474 | 1.17 | 0.91 | 0.572 | 1.23 | 0.759 | 0.748 | 0.676 | 0.497 |
| IDFARYWHGDD [MMP11_Y162] | 0.878 | 0.843 | 0.674 | 0.799 | 0.639 | 0.536 | 0.567 | 0.463 | 0.857 | 0.592 | 0.387 | 0.81 | 0.477 | 0.676 | 0.504 | 0.405 |
| PTTKTYFPHFD [HBA1_Y43] | 0.951 | 0.825 | 0.396 | 0.479 | 0.572 | 0.553 | 0.625 | 0.352 | 0.929 | 0.59 | 0.576 | 0.66 | 0.595 | 0.374 | 0.396 | 0.545 |
| FSTDFYRVGGH [NTRK2_Y707_YF] | 0.702 | 0.849 | 0.56 | 0.471 | 0.704 | 0.429 | 0.569 | 0.396 | 0.813 | 0.756 | 0.478 | 0.722 | 0.459 | 0.637 | 0.405 | 0.493 |
| GGQVFHNSEYG [FLT4_Y1333_Y1333H] | 0.655 | 0.665 | 0.474 | 0.349 | 0.67 | 0.314 | 0.535 | 0.377 | 0.712 | 0.857 | 0.425 | 0.581 | 0.386 | 0.438 | 0.431 | 0.362 |
| SQQTYYPVSNM [ABCD1_Y181_R182P] | 0.534 | 0.864 | 0.532 | 0.946 | 9.57 | 10.5 | 10.5 | 6.81 | 0.68 | 2.44 | 5.27 | 1.32 | 13.5 | 5.58 | 4.24 | 3.77 |
| RPFVFYFSFLL [PTEN_Y177_R173P_YF] | 1.02 | 2.27 | 0.918 | 0.587 | 1.55 | 0.641 | 0.835 | 0.867 | 1.29 | 1.29 | 0.982 | 1.29 | 0.589 | 0.838 | 0.483 | 0.76 |
| RLLVIYPWTQR [HBG2_Y36_V35I] | 1.49 | 1.97 | 1.31 | 0.498 | 1.12 | 0.58 | 1.03 | 0.635 | 1.46 | 0.907 | 0.588 | 1.98 | 0.594 | 0.836 | 0.639 | 0.793 |
| EPSVDYCVVKI [CAD_Y735] | 1.22 | 1.11 | 0.684 | 1.26 | 1.1 | 0.529 | 1.71 | 0.664 | 1.11 | 0.774 | 0.618 | 1.57 | 2.25 | 2.83 | 1.95 | 0.577 |
| ILTFKYLQKPM [KIT_Y547_YF] | 0.474 | 0.659 | 0.449 | 0.562 | 1.42 | 0.548 | 0.742 | 0.543 | 1.29 | 1.07 | 0.605 | 1.19 | 0.485 | 0.792 | 0.759 | 0.579 |

| Sequence | SH2 binding enrichment (SHP2-C SH2) | SH2 binding enrichment (Grb2 SH2) | SH2 binding enrichment (c-Src SH2) | phosphorylation enrichment (Fer (mouse)) | phosphorylation enrichment (Jak2) | phosphorylation enrichment (MERTK) | phosphorylation enrichment (FGFR3) | phosphorylation enrichment (Hck) | phosphorylation enrichment (Fes) | phosphorylation enrichment (c-Abl (mouse)) | phosphorylation enrichment (c-Src) | phosphorylation enrichment (AncSZ) | phosphorylation enrichment (FGFR1) | phosphorylation enrichment (EPHB1) | phosphorylation enrichment (EPHB2) | phosphorylation enrichment (Fyn) |
| --- | --- | --- | --- | --- | --- | --- | --- | --- | --- | --- | --- | --- | --- | --- | --- | --- |
| PVGDVYKKKGL [NMNAT1_Y55_A54V] | 0.748 | 0.837 | 0.55 | 0.487 | 0.405 | 0.491 | 0.915 | 0.646 | 0.557 | 0.417 | 0.488 | 0.534 | 0.498 | 0.451 | 0.567 | 0.465 |
| MSSLFYANTLF [HOXB7_Y6_YF] | 0.861 | 0.905 | 0.509 | 3.42 | 0.859 | 3.91 | 0.735 | 0.905 | 1.19 | 0.693 | 0.883 | 0.906 | 0.656 | 1.14 | 0.834 | 0.905 |
| TPTYPYLLPKS [PLD2_Y580] | 0.899 | 0.768 | 0.62 | 0.286 | 0.639 | 0.564 | 0.505 | 0.441 | 0.599 | 0.564 | 0.581 | 0.527 | 0.63 | 0.29 | 0.349 | 0.452 |
| GGPTYYIDTNA [ACTL6A_Y69] | 0.694 | 0.822 | 0.679 | 0.407 | 0.727 | 1.08 | 0.963 | 0.899 | 0.893 | 0.555 | 0.778 | 0.885 | 1.09 | 0.698 | 0.514 | 0.926 |
| HDRGNYVQLNM [RECQL4_Y353_R355Q] | 1.18 | 0.986 | 1.95 | 0.674 | 0.55 | 0.686 | 1.35 | 0.508 | 1.1 | 0.552 | 0.442 | 0.744 | 1.99 | 8.72 | 3.46 | 0.493 |
| WAFNLYDINKY [KCNIP3_Y174_D179Y] | 0.803 | 0.906 | 0.706 | 3.29 | 0.953 | 2.65 | 0.725 | 3.09 | 1.24 | 0.709 | 1.57 | 0.987 | 0.553 | 2.29 | 3.92 | 1.83 |
| FSNPAYYVLEG [INPPL1_Y986_N982S] | 0.99 | 0.918 | 4.44 | 0.426 | 3.92 | 6.51 | 7.89 | 0.778 | 0.848 | 0.591 | 1.43 | 0.834 | 10.1 | 0.614 | 0.509 | 1.32 |
| RIFDFYSARKA [STOX1_Y858_YF] | 0.538 | 0.75 | 0.529 | 0.72 | 0.729 | 0.644 | 0.979 | 1.33 | 1.59 | 1.04 | 0.645 | 1.21 | 0.82 | 1.1 | 0.847 | 0.849 |
| EDDPEYMRLRN [ADD2_Y31] | 0.587 | 0.838 | 0.506 | 0.589 | 1.12 | 0.414 | 0.887 | 0.724 | 1.17 | 0.823 | 0.509 | 1.2 | 0.785 | 0.674 | 0.594 | 0.601 |
| HRERPYGGGGG [FUS_Y526_R521H] | 1.05 | 1.17 | 1.18 | 0.407 | 0.386 | 0.557 | 0.449 | 0.439 | 0.714 | 0.556 | 0.523 | 0.487 | 0.553 | 0.483 | 0.265 | 0.454 |
| MDNQEYKDAYT [BRDT_Y331_K336T] | 0.655 | 0.702 | 0.574 | 0.638 | 1.11 | 0.586 | 0.783 | 0.673 | 1.33 | 0.792 | 0.546 | 1.33 | 0.667 | 0.598 | 0.796 | 0.589 |
| GDFFCYLAEVA [YWHAG_Y133_R132C_YF] | 0.701 | 0.618 | 0.491 | 0.865 | 1.39 | 0.546 | 0.922 | 0.608 | 1.52 | 1.12 | 0.484 | 1.33 | 0.557 | 0.863 | 0.655 | 0.702 |
| TESNNYIYTTL [FAM83B_Y637_K640T] | 0.8 | 0.752 | 0.579 | 2.64 | 0.774 | 5.09 | 1.92 | 7.3 | 0.898 | 0.692 | 7.09 | 1.03 | 2.74 | 2.3 | 1.15 | 8.53 |
| CNTIHYNFMCN [TP53_Y234_T230N_YF] | 1.27 | 1.41 | 2.09 | 0.483 | 0.636 | 0.357 | 0.515 | 0.531 | 0.822 | 0.601 | 0.498 | 0.787 | 0.513 | 0.438 | 0.4 | 0.419 |
| KFACSYTPVKA [FLNB_Y708_T703K_YF] | 1.99 | 0.862 | 0.978 | 0.462 | 0.747 | 0.481 | 0.579 | 0.509 | 0.895 | 0.577 | 0.459 | 0.811 | 0.497 | 0.521 | 0.502 | 0.472 |
| HELYVYKSDEN [DOCK3_Y548_C550S] | 0.772 | 1.04 | 0.584 | 0.879 | 1.75 | 0.487 | 1.32 | 0.835 | 2.14 | 1.19 | 0.917 | 1.7 | 0.684 | 1.28 | 0.912 | 0.849 |
